Results from patent US20090196913A1 (published 2009).

Molecular target: human αVβ3/5 integrins on human tumor cells (A375.S2, MDA-MB-231, A2780, HT29, A549) (human, UniProt P06756 31-1048)
Assay: cell-based or functional assay

human αVβ3/5 integrins on human tumor cells (A375.S2, MDA-MB-231, A2780, HT29, A549), sequence (P06756 31-1048): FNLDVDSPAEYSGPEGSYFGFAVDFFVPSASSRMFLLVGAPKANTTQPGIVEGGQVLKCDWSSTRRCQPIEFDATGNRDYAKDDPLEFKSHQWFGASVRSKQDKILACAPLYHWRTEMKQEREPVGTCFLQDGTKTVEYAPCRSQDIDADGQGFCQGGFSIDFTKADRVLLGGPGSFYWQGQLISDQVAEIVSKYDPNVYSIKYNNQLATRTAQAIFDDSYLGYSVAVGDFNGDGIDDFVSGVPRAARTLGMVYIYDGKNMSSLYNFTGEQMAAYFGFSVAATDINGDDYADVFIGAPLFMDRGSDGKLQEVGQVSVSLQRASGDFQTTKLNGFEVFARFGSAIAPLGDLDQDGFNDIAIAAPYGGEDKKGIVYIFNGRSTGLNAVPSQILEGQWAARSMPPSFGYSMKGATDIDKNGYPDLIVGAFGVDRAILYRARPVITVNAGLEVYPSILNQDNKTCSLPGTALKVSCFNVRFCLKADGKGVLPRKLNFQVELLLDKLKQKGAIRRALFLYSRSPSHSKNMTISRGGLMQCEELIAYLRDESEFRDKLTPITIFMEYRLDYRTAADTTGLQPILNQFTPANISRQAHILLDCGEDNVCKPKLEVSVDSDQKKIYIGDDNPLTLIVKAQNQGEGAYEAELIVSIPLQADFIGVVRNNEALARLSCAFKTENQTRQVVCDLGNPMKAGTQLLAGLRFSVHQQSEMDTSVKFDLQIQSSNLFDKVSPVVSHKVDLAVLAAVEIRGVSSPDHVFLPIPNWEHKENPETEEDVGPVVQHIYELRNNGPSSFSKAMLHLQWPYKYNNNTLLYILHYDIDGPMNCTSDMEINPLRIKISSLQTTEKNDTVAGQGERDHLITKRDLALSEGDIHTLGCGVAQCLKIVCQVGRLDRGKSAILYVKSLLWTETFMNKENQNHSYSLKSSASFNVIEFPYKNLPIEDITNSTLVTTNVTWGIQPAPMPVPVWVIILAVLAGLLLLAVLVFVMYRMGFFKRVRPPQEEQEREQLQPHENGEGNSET

Increase (ratio of IC50 of liposome-entrapped doxorubicin to IC50 of 90:1 integrin-targeted liposomes), breast cancer MDA-MB-231: 5 | Increase (ratio of IC50 of liposome-entrapped doxorubicin to IC50 of 90:1 integrin-targeted liposomes), colon cancer HT29: 1.1 | Increase (ratio of IC50 of liposome-entrapped doxorubicin to IC50 of 90:1 integrin-targeted liposomes), lung cancer A549: 1 | Increase (ratio of IC50 of liposome-entrapped doxorubicin to IC50 of 90:1 integrin-targeted liposomes), melanoma A375.S2: 29 | Increase (ratio of IC50 of liposome-entrapped doxorubicin to IC50 of 90:1 integrin-targeted liposomes), ovarian cancer A2780: 29
B1: CNTO95 Fab′ (from pepsin cleavage, reduction and reoxidation) conjugated to PEG-DSPE on the surface of liposomes (Fab, V domains shown)
VH: QVQLVESGGGVVQPGRSRRLSCAASGFTFSRYTMHWVRQAPGKGLEWVAVISFDGSNKYYVDSVKGRFTISRDNSENTLYLQVNILRAEDTAVYYCAREARGSYAFDIWGQGTMVTVSS
VL: EIVLTQSPATLSLSPGERATLSCRASQSVSSYLAWYQQKPGQAPRLLIYDASNRATGIPARFSGSGSGTDFTLTISSLEPEDFAVYYCQQRSNWPPFTFGPGTKVDIKR
modifications: free sulfhydryl near the C-terminus conjugated to maleimide-PEG-DSPE inserted in the liposome
